According to US20210371461:

Biological target: T1, MePEG2-IEGR (TFA salt)
T1 chain: IEGR

B1: plasmin (protein)
chain: KVYLSECKTGNGKNYRGTMSKTKNGITCQKWSSTSPHRPRFSPATHPSEGLEENYCRNPDNDPQGPWCYTTDPEKRYDYCDILECEEECMHCSGENYDGKISKTMSGLECQAWDSQSPHAHGYIPSKFPNKNLKKNYCRNPDRELRPWCFTTDPNKRWELCDIPRCTTPPPSSGPTYQCLKGTGENYRGNVAVTVSGHTCQHWSAQTPHTHNRTPENFPCKNLDENYCRNPDGKRAPWCHTTNSQVRWEYCKIPSCDSSPVSTEQLAPTAPPELTPVVQDCYHGDGQSYRGTSSTTTTGKKCQSWSSMTPHRHQKTPENYPNAGLTMNYCRNPDADKGPWCFTTDPSVRWEYCNLKKCSGTEASVVAPPPVVLLPDVETPSEEDCMFGNGKGYRGKRATTVTGTPCQDWAAQEPHRHSIFTPETNPRAGLEKNYCRNPDGDVGGPWCYTTNPRKLYDYCDVPQCAAPSFDCGKPQVEPKKCPGRVVGGCVAHPHSWPWQVSLRTRFGMHFCGGTLISPEWVLTAAHCLEKSPRPSSYKVILGAHQEVNLEPHVQEIEVSRLFLEPTRKDIALLKLSSPAVITDKVIPACLPSPNYVVADRTECFITGWGETQGTFGAGLLKEAQLPVIENKVCNRYEFLNGRVQSTELCAGHLAGGTDSCQGDSGGPLVCFEKDKYILQGVTSWGLGCARPNKPGVYVRVSRFVTWIEGVMRNN
luminescence signal (RLU) from substrate cleavage, 8 nM enzyme: 8 nM plasmin yielded ˜8.000 RLU

B2: tissue-type plasminogen activator (protein)
chain: SYQVICRDEKTQMIYQQHQSWLRPVLRSNRVEYCWCNSGRAQCHSVPVKSCSEPRCFNGGTCQQALYFSDFVCQCPEGFAGKCCEIDTRATCYEDQGISYRGTWSTAESGAECTNWNSSALAQKPYSGRRPDAIRLGLGNHNYCRNPDRDSKPWCYVFKAGKYSSEFCSTPACSEGNSDCYFGNGSAYRGTHSLTESGASCLPWNSMILIGKVYTAQNPSAQALGLGKHNYCRNPDGDAKPWCHVLKNRRLTWEYCDVPSCSTCGLRQYSQPQFRIKGGLFADIASHPWQAAIFAKHRRSPGERFLCGGILISSCWILSAAHCFQERFPPHHLTVILGRTYRVVPGEEEQKFEVEKYIVHKEFDDDTYDNDIALLQLKSDSSRCAQESSVVRTVCLPPADLQLPDWTECELSGYGKHEALSPFYSERLKEAHVRLYPSSRCTSQHLLNRTVTDNMLCAGDTRSGGPQANLHDACQGDSGGPLVCLNDGRMTLVGIISWGLGCGQKDVPGVYTKVTNYLDWIRDNMRP
luminescence signal (RLU) from substrate cleavage, 193 IU/mL enzyme: 193 IU/mL tPA yielded ˜6.000 RLU

B3: factor XIIa (protein)
chain: IPPWEAPKEHKYKAEEHTVVLTVTGEPCHFPFQYHRQLYHKCTHKGRPGPQPWCATTPNFDQDQRWGYCLEPKKVKDHCSKHSPCQKGGTCVNMPSGPHCLCPQHLTGNHCQKEKCFEPQLLRFFHKNEIWYRTEQAAVARCQCKGPDAHCQRLASQACRTNPCLHGGRCLEVEGHRLCHCPVGYTGAFCDVDTKASCYDGRGLSYRGLARTTLSGAPCQPWASEATYRNVTAEQARNWGLGGHAFCRNPDNDIRPWCFVLNRDRLSWEYCDLAQCQTPTQAAPPTPVSPRLHVPLMPAQPAPPKPQPTTRTPPQSQTPGALPAKREQPPSLTRNGPLSCGQRLRKSLSSMTRVVGGLVALRGAHPYIAALYWGHSFCAGSLIAPCWVLTAAHCLQDRPAPEDLTVVLGQERRNHSCEPCQTLAVRSYRLHEAFSPVSYQHDLALLRLQEDADGSCALLSPYVQPVCLPSGAARPSETTLCQVAGWGHQFEGAEEYASFLQEAQVPFLSLERCSAPDVHGSSILPGMLCAGFLEGGTDACQGDSGGPLVCEDQAAERRLTLQGIISWGSGCGDRNKPGVYTDVAYYLAWIREHTVS
luminescence signal (RLU) from substrate cleavage, 145 nM enzyme: 145 nM FXlla yielded ˜500 RLU
